The text below walks through data of paper PMC4653306, “Metagenomics of an Alkaline Hot Spring in Galicia (Spain): Microbial Diversity Analysis and Screening for Novel Lipolytic Enzymes” (Frontiers in Microbiology, 2015).

Substrate in the data set: CCCCCCCCCCCC(=O)Oc1ccc([N+](=O)[O-])cc1
Kind of data set: spectrophotometric p-nitrophenol release (A400), initial rates, Michaelis-Menten fit. The note with it: extracellular medium of recombinant yeast, Tris/HCl pH 7.5, CaCl2, 40 °C, pNP12 0.002-2.5 mM. The class given is biochemical, uncultured organism. An excerpt: spectrophotometric p-nitrophenol release (A400), initial rates, Michaelis-Menten fit on LOB4Est

B1: LOB4Est (uncultured organism) (protein)
chain: SRPRTAVHDRVLELVQQQIAAGQQLGVQVCAYQNGEKIVDIVAGVMGPDDPRPVQPDTLFNSFSTTKGVAATALHILAEQGKLEYEQPVARYWPAFAANGKERVTVAQAMSHQAGLHAMPTPSTIETLCDWEGGLNWVASGVPAWEPGTATGYHAITYAWVVGGIVYGATGRHIKDVIREEIAIPLGVADELFVGIPEGVEDRLATLAVPAPGEGMALPIPPDHDFFKAMPPSLGGHVYNDMRVRRACLPSANGHFSARALAKMYAALAGGGVVDGVRLVSPERIALMQRILTADMDRVLMLPLRKGVGFMMGGPVNGVSGVFGPRETAFGHSGAGGSTAFCDPETGLAVAVTINQMQMTLQAEGPTYAICQLIREELGCA
notes: yeast alpha-factor secretion signal fusion (removed on secretion), N-terminal FLAG-tag kept; secreted by Saccharomyces cerevisiae BJ3505 (YEpFLAG-1), assayed as unpurified extracellular medium
B1: the Km stood at 298 µM and the Vmax turned out to be 264 µM/min.
